This data set can be described thus: soluble on expression in E. coli; label from the status in PepcDB or PDB records.
Turning to “MTDHALLLVNLGSPASTQVADVRSYLNQFLMDPYVIDIPWPLRRLLVSLILIKRPEQSAHAYASIWWDEGSPLVVLSKRLQQAMKKEWSHGPVELAMRYGEPSIETVLTRLSEQGFKKVTLAPLYPQFADSTVTTVIEEAKRVVRAKSLKMQFSVLQPFYDQPEYVSALVESVRPHLEQPYDHLLLSFHGLPERHLHKRDPTGKHCLKDDCCMTAPAQVVATCYRAQCLQSAAAFAKRMGIPDGKWSVSFQSRLGRAKWIEPYTEARLDELAAQGVKKLLVMCPAFVADCIETLEEIGDRGAEQFKEAGGEELILVPCLNDDPNWAKELNRLCERAPLML”, the “soluble on expression in E. coli” value is given as “not soluble”.
Take “MAESKAKNMFQKLSLTPKRNHEHDAGRNIETEEELLQKLKRLKLDNDYLHMWLSYEKLATIVENRSTDKTRKPEYGKLIFYYQGAAHALVSIWKRDSDLPFEQYISGDIARLFNKALDVAIRHMDPTVVHTIARDGGVALMSIDKPIEARDVLVRGENHLVAVPADGQLDFLERLIVLYYIMDSILIEERWNEYMVYTDKVWMMTMKEDKRCPLLENIIKEVEQVAVLLLVFQRKVECSERHKQLLASYRLDDWKAPIIKHNPPLSSLNPSEQKVFRRFLFYMMSNKRSVDKVLKHR”: the “soluble on expression in E. coli” value was “not soluble”.
In the case of “MAIERIQLHTHGDDRGLLISLEQQRNVPFEIRRVYYIFGTRQGVHRGQHAHRQLNQLAVALHGSVTLLLDEGQGQGPEEVVLDDPSQGVLLGRMVWRDLHQFSEDCVLMVLADQYYDPGDYILDYDEFLTEARGVSRLEALEHHHHHH” it was “soluble”; in that of “MDDLMKDRIDLLIDYIMKHCLWQFHSRSWDRKRQNEGILTKTTQLLCDEPVDLGTPADKCYWVDAVCLADAYKSRYPWLKTMDKDDIKALMGALHERLDHLTITGSLNLELTDQHYLEHHHHHH”, “soluble”; in that of “MCFWPVWNGKHCPHSTGMPATLPGHRKPTFSWPVSISVMKMPDTHTMVATVSRRILPGKPRQCFSLAVLILPLLEHGGYAITELTVTRRNTCGYSFVSGCPTVFSSRDLVGSGEEVRQARDTFLYINTDPTQGWIHYEPAAFSAGAQNKHLPMASLTGSGKHPAAARLNPVSRGPQFITVSLIIALLGTAWYGWQYYERWQTEKAAQAAVARQATEERITPPWPGLPETDAFIRGCADIWTSLPLSAAGWRYSLAECSTDGGSGNLRASYTNTAGATVTDFIRRISDMTDSRPFIVMPEGKTGGIGLPVTFRLSENAVTVDALPETAVLQERLTSLAQSMQLKLDWQEVNNSVTDENGQIIQPPWKEYDLQIQTTLPAHHLAERLKEPSVRFISVTRQLENGRFHYQFTGKYYARLEHHHHHH”, “not soluble”.
Turning to “MGSDKIHHHHHHMVTEIELKYSLLDSNEQTKPEKIKTTISQLLSEHDVTFVHQEKQLSNHYFDTADLTLRKNRIALRTRGTKCFDETKRFEQTIKTSGTIIAGLHQRPEYNVDIGDAKPIVSLFPDIIFQPNIDINLLQQQIVELFSTHFTRHTWLVSFEDAQIEIAFDCGEVACQNYVKKPRIYEIELEFVSGDSQALLGLTKLLFSQLALRPGQLTKAARGYALYHESLTLASHVENKPPNNSAIVEQIELSMINLPKKIPLHNALTHGIEFSLNQLQLCVDSYVEVPSFNMLSKVSEQLILLRQGFWLFDELLSPDEKALRTELSYFIRTIHWVENARYIQLLINKQSSYQKENLINQELITKLQLRQSRYPRELQVLELLHSERFNNLQVDLLSLLLKRNSDETLKIDNSSSLVEFATKHLTNSTKALSDELVKLQKPQDSTSIELYLTAHSLLIRALLTTSWFSCLFAEPESDIVKRFNMPLLDIKQGIIELQSLSLLLQQLKHLPKKENKLTQWLTNKSENLITALDQSRAKALTMKPYWP”, the “soluble on expression in E. coli” value is recorded as “not soluble”.
In the case of “MAGFFNKLTGFFTISRQHNPPFEAASKSRRMGGFDPAKKHINKAIEECGDTIVARSRWLYDNESLYGSATEEWVSAAVSDGIKPYPRIEGFQEEKKKLLDLWWQWVDEADYDEDANFYGLQATIAREVFLTGECFVRLHYVDLYGRSGVPFQLQIYPTEMLDLTYNGPAETEGNYIRMGIEFNASGKRVAYHFWEHHPYDDCPANRAFKSQDRIRVPAEMVLHIKERRIAGQLRGSPKITRSMTKIFQLESYDDAELDRKRTAALFAVFITGKESHDAALEENREQTRLPKKPEEAADVDKIYPGSVNMVDGEKQITFSTPVEVGGSYEAFQFRNILKICSALNMPYAVVTGDVTRGNFSNVRTSIIQFRRHVKQWREHIIAFQFNRIVWERFVEMAVLSGRVHLPGWEENPLPWLQCESFAPPLEMIDPNKDISAEKEEIRAGLKTRRMALAERGFDIDSIHAELEEEHTDARARGLSFDTDMAASSGDNQIIDTTDSDPSETYESNQGSEAHKNGE” it was “not soluble”.
